According to patent US7208171B2, “Injectable and bioadhesive polymeric hydrogels as well as related methods of enzymatic preparation” (Northwestern University, priority 2002, dated 2007):
Non-standard residues stand in square brackets, D forms with d. No end group written: not given here. Dopa = N[C@@H](Cc1ccc(O)c(O)c1)C(=O)O

Experiments:
[1] = molecular target: T1, guinea pig liver transglutaminase (UniProt P08587); assay: Substrate specificity: TGase-catalysed cross-linking of peptide with dansyl labeled substrate, RP-HPLC; format: biochemical; settings: peptide concentration 0.05–50 mM, enzyme 0.05 U/ml, reaction time 30 min
T1 construct: Transglutaminase from guinea pig liver, Boc-L-Lys(Boc)-OH, and N-Boc-L-DOPA dicyclohexylammonium salt was purchased from Sigma Chemical Company; purchased Sigma Chemical Company (St. Louis, Mo.); host or cells: guinea pig liver (tissue-derived enzyme)
T1 sequence (P08587 1-690): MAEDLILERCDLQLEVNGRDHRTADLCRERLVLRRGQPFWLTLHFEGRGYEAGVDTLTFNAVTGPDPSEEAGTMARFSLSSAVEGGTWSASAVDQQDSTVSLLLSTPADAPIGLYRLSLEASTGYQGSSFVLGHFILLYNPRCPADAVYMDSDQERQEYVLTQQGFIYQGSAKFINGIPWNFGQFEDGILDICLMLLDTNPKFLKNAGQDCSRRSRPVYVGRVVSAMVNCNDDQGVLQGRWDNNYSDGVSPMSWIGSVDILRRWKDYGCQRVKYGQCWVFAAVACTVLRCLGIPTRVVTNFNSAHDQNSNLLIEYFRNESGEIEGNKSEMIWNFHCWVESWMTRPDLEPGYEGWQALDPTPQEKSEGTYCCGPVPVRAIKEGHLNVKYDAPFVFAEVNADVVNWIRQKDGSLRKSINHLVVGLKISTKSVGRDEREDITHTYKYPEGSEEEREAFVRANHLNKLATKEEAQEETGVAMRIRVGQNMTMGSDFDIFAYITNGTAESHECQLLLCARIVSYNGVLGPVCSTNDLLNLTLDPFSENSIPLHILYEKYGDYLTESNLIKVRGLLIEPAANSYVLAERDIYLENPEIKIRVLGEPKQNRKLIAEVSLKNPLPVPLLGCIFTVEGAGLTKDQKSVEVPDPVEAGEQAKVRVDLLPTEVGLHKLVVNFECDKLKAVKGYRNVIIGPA
Protocol: For acyl donor attention was focused on peptides containing two to about 5 contiguous glutaminyl (e.g., Gln residues), whereas for acyl acceptor a variety of residues were placed near or adjacent Lys. The peptides were assayed as TGase substrates by monitoring the rate of cross-linking reaction with a known dansyl labeled substrate. The use of fluorescently labeled compounds and RP-HPLC analysis with the aid of LC-ESI/MS, allowed for identification of products and comparison of the kinetic constants of the candidate peptides. The specificity (kcat/Km, app) values determined under identical experimental conditions reflect the relative specificity of the enzyme toward the substrates; peptides with higher specificities are better substrates for TGase enzyme, indicating the enzyme-catalyzed cross-linking reaction of that peptide will proceed more rapidly.
Substrate Specificity. […] All reaction products were characterized by LC-ESI/MS (Table 3) and quantitatively analyzed by RP-HPLC. Kinetic constants (Table 4a–b and FIG. 6) were calculated from two methods: fit of the initial rates versus substrate concentrations to the Michaelis-Menten equation using the SigmaPlot® 2000 program with Enzyme Kinetics Module (SPSS Inc., IL); and graphing of the kinetic data using the direct linear plot. […]

[2] = molecular target: T2, guinea pig liver transglutaminase (guinea pig, UniProt P08587 2-690); assay: cell-based or functional assay
T2 sequence (looked up): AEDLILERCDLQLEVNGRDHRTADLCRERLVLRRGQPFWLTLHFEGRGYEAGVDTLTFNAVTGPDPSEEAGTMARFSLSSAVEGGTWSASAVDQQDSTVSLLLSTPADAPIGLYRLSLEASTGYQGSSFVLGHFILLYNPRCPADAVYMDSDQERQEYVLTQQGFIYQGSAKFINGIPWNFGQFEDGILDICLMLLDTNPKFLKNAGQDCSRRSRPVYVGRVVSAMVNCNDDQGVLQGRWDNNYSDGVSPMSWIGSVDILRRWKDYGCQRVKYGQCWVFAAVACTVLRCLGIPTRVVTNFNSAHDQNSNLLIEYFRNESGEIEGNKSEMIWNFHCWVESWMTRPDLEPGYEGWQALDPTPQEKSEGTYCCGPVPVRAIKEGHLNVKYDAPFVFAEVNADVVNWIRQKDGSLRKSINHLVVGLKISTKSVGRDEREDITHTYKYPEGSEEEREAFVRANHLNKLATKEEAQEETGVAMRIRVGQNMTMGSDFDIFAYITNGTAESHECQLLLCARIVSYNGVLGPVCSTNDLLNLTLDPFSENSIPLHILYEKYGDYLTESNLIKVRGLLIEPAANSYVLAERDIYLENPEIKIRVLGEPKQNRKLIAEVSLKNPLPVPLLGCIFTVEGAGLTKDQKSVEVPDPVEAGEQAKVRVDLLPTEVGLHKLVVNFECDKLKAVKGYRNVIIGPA

DOPA-FKG-NH2 = molecular target: T3, DOPA-FKG-NH2
T3 chain: XFKG

DOPA-GQQQLG-NH2 = molecular target: T4, DOPA-GQQQLG-NH2
T4 chain: XGQQQLG

Ac-GQQQLG-NH2 = molecular target: T5, Ac-GQQQLG-NH2
T5 chain: GQQQLG

Ac-LKG-NH2 = molecular target: T6, Ac-LKG-NH2
T6 chain: LKG

FKG-NH2 = molecular target: T7, FKG-NH2
T7 chain: FKG

Ac-KG-NH2 = molecular target: T8, Ac-KG-NH2
T8 chain: KG

Ac-FKG-NH2 = molecular target: T9, Ac-FKG-NH2
T9 chain: FKG

NH2-GQLKHLEQQEG-NH2 = molecular target: T10, NH2-GQLKHLEQQEG-NH2
T10 chain: GQLKHLEQQEG

LKG-NH2 = molecular target: T11, LKG-NH2
T11 chain: LKG

DOPA-LKG-NH2 = molecular target: T12, DOPA-LKG-NH2
T12 chain: XLKG

Molecule: DOPA-Lys-Gly-NH2 ([Dopa]-Lys-Gly-NH2; N-terminus assumed; SMILES NCCCC[C@H](NC(=O)[C@@H](N)Cc1ccc(O)c(O)c1)C(=O)NCC(N)=O) [Peptide 4]
- cross-linking product detection [1]: No cross-linking product was detected

Molecule: DOPA-LKG-NH2 (peptide)
- fold increase in specificity against Ac-KG-NH2 [2]: 100 fold
- fold increase in specificity against Ac-LKG-NH2 [2]: 2.4 fold

Molecule: DOPA-FKG-NH2 (peptide)
- fold increase in specificity against Ac-FKG-NH2 [2]: 2.4 fold
- fold increase in specificity against Ac-KG-NH2 [2]: 100 fold

B1: Ac-LKG-NH2 (peptide)
peptide: Ac-Leu-Lys-Gly-NH2
- fold increase in specificity against LKG-NH2 [2]: ~10 fold

B2: guinea pig liver transglutaminase (protein)
chain: AEDLILERCDLQLEVNGRDHRTADLCRERLVLRRGQPFWLTLHFEGRGYEAGVDTLTFNAVTGPDPSEEAGTMARFSLSSAVEGGTWSASAVDQQDSTVSLLLSTPADAPIGLYRLSLEASTGYQGSSFVLGHFILLYNPRCPADAVYMDSDQERQEYVLTQQGFIYQGSAKFINGIPWNFGQFEDGILDICLMLLDTNPKFLKNAGQDCSRRSRPVYVGRVVSAMVNCNDDQGVLQGRWDNNYSDGVSPMSWIGSVDILRRWKDYGCQRVKYGQCWVFAAVACTVLRCLGIPTRVVTNFNSAHDQNSNLLIEYFRNESGEIEGNKSEMIWNFHCWVESWMTRPDLEPGYEGWQALDPTPQEKSEGTYCCGPVPVRAIKEGHLNVKYDAPFVFAEVNADVVNWIRQKDGSLRKSINHLVVGLKISTKSVGRDEREDITHTYKYPEGSEEEREAFVRANHLNKLATKEEAQEETGVAMRIRVGQNMTMGSDFDIFAYITNGTAESHECQLLLCARIVSYNGVLGPVCSTNDLLNLTLDPFSENSIPLHILYEKYGDYLTESNLIKVRGLLIEPAANSYVLAERDIYLENPEIKIRVLGEPKQNRKLIAEVSLKNPLPVPLLGCIFTVEGAGLTKDQKSVEVPDPVEAGEQAKVRVDLLPTEVGLHKLVVNFECDKLKAVKGYRNVIIGPA
- Km, app (DOPA-FKG-NH2): 17 µM
- Vmax, app (DOPA-FKG-NH2): 1.25 µM/min
- kcat (DOPA-FKG-NH2): 0.375 s⁻¹
- kcat/Km, app (DOPA-FKG-NH2): 22100 M⁻¹ s⁻¹
- Km, app (DOPA-GQQQLG-NH2): 367 µM
- Vmax, app (DOPA-GQQQLG-NH2): 7.8 mM/min
- kcat (DOPA-GQQQLG-NH2): 0.293 s⁻¹
- kcat/Km, app (DOPA-GQQQLG-NH2): 798 M⁻¹ s⁻¹
- substrate properties (acyl donor) (DOPA-GQQQLG-NH2): all three designed Gln peptides exhibiting good substrate properties
- Km, app (Ac-GQQQLG-NH2): 119 µM
- Vmax, app (Ac-GQQQLG-NH2): 1.8 mM/min
- kcat (Ac-GQQQLG-NH2): 0.0667 s⁻¹
- kcat/Km, app (Ac-GQQQLG-NH2): 568 M⁻¹ s⁻¹
- substrate properties (acyl donor) (Ac-GQQQLG-NH2): all three designed Gln peptides exhibiting good substrate properties
- Km, app (Ac-LKG-NH2): 56 µM
- Vmax, app (Ac-LKG-NH2): 1.5 µM/min
- kcat (Ac-LKG-NH2): 0.45 s⁻¹
- kcat/Km, app (Ac-LKG-NH2): 8030 M⁻¹ s⁻¹
- Km, app (FKG-NH2): 498 µM
- Vmax, app (FKG-NH2): 1.7 µM/min
- kcat (FKG-NH2): 0.51 s⁻¹
- kcat/Km, app (FKG-NH2): 1030 M⁻¹ s⁻¹
- Km, app (Ac-KG-NH2): 872 µM
- Vmax, app (Ac-KG-NH2): 1.02 µM/min
- kcat (Ac-KG-NH2): 0.153 s⁻¹
- kcat/Km, app (Ac-KG-NH2): 177 M⁻¹ s⁻¹
- Km, app (Ac-FKG-NH2): 46.9 µM
- Vmax, app (Ac-FKG-NH2): 1.46 µM/min
- kcat (Ac-FKG-NH2): 0.438 s⁻¹
- kcat/Km, app (Ac-FKG-NH2): 9330 M⁻¹ s⁻¹
- Km, app (NH2-GQLKHLEQQEG-NH2): 593 µM
- Vmax, app (NH2-GQLKHLEQQEG-NH2): 12.5 mM/min
- kcat (NH2-GQLKHLEQQEG-NH2): 0.468 s⁻¹
- kcat/Km, app (NH2-GQLKHLEQQEG-NH2): 788 M⁻¹ s⁻¹
- substrate properties (acyl donor) (NH2-GQLKHLEQQEG-NH2): all three designed Gln peptides exhibiting good substrate properties
- Km, app (LKG-NH2): 609 µM
- Vmax, app (LKG-NH2): 1.64 µM/min
- kcat (LKG-NH2): 0.492 s⁻¹
- kcat/Km, app (LKG-NH2): 807 M⁻¹ s⁻¹
- Km, app (DOPA-LKG-NH2): 19.5 µM
- Vmax, app (DOPA-LKG-NH2): 1.28 µM/min
- kcat (DOPA-LKG-NH2): 0.383 s⁻¹
- kcat/Km, app (DOPA-LKG-NH2): 19600 M⁻¹ s⁻¹

B3: Ac-FKG-NH2 (peptide)
peptide: Ac-Phe-Lys-Gly-NH2
- fold increase in specificity against FKG-NH2 [2]: ~10 fold

B4: FKG-NH2 (peptide)
peptide: Phe-Lys-Gly-NH2
- fold increase in specificity against Ac-KG-NH2 [2]: ~5 fold

B5: LKG-NH2 (peptide)
peptide: Leu-Lys-Gly-NH2
- fold increase in specificity against Ac-KG-NH2 [2]: ~5 fold
